Assays:
[1] = biological target: HIV-1 B.AD8 Env on Aldrithiol-2 inactivated virions (HIV-1)
[2] = biological target: HIV-1 B.ADA Env on Aldrithiol-2 inactivated virions (HIV-1)
[3] = biological target: HIV-1 B.MN Env on Aldrithiol-2 inactivated virions (HIV-1)
[4] = biological target: HIV-1 B.6535 Env (HIV-1)
[5] = biological target: HIV-1 B.PVO Env (HIV-1)
[6] = biological target: HIV-1 C.DU123 Env (HIV-1)
[7] = biological target: Env of HIV-BaL.LucR.T2A.ecto/hPBMC (HIV-1)

Molecule | IC90, inhibition of fusion (syncytia) induced by Aldrithiol-2 inactivated HIV-1 in SUP-T1 cells [1] [µg/mL] | IC90, inhibition of fusion (syncytia) induced by Aldrithiol-2 inactivated HIV-1 in SUP-T1 cells [2] [µg/mL] | IC90, inhibition of fusion (syncytia) induced by Aldrithiol-2 inactivated HIV-1 in SUP-T1 cells [3] [µg/mL] | IC50, neutralization of HIV-1 Env pseudovirus in TZM-bl cells [4] [µg/mL] | IC50, neutralization of HIV-1 Env pseudovirus in TZM-bl cells [5] [µg/mL] | IC50, neutralization of HIV-1 Env pseudovirus in TZM-bl cells [6] [µg/mL] | mean IC80, inhibition of HIV-1 infection of PBMC from 75 donors [7] [µg/mL]
2F5 (antibody) | 3.4 | < 1.2 | < 1.2 | – | – | – | –
4E10 (antibody) | 10 | < 1.2 | < 1.2 | < 2 | 2.2 | < 2 | 20.4
Bavituximab (antibody) | – | – | – | > 50 | > 50 | > 50 | –
IgG1b12 (antibody) | – | – | – | – | – | – | 9.2
mAb 11.31 (PGN 632) (antibody, V domains shown) VH: QVQLQESGPGLVKPSGTLSLTCAVSGGSISSSNWWSWVRQPPGKGLEWIGEIYHSGSTNYNPSLKSRVTISVDKSKNQFSLKLSSVTAADTAVYYCARSRFRSWLVKRRYVYFDYWGQGTLVTVSS VL: SSELSQDPAVSVALGQTVRITCQGDSLRSYYASWYQQKPGQAPVLVIYGKNNRPSGIPDRFSGSSSGNTASLTITGAQAEDEADYYCNSRDSSGNVVFGGGTKVTVL | – | – | – | > 50 | > 50 | > 50 | –

Source: patent US20110318360A1
